From paper PMC9943651

What was measured:
[1] = molecular target: Annexin A2 CTD (AnxA2) (Homo sapiens) (UniProt P07355); assay: fluorescence anisotropy; details: 20 mM HEPES pH 7.0, 100 mM NaCl, 1 mM DTT, with 1 mM CaCl2, MgCl2 or EGTA, 50 nM labelled oligo, 0-120 uM protein, temperature not stated
[2] = molecular target: AnxA2 mutant #3 K115A;K119A;R205A;K206A (Homo sapiens) (UniProt P07355); assay: fluorescence anisotropy; details: full PS DNA; no 2' modification; 20 mM HEPES pH 7.0, 100 mM NaCl, 1 mM DTT, with 1 mM CaCl2, MgCl2 or EGTA; 50 nM labelled oligo, 0-120 uM protein; temperature not stated
Sequence of AnxA2 mutant #3 K115A;K119A;R205A;K206A (Homo sapiens) (P07355 34-339 K115A/K119A/R205A/K206A): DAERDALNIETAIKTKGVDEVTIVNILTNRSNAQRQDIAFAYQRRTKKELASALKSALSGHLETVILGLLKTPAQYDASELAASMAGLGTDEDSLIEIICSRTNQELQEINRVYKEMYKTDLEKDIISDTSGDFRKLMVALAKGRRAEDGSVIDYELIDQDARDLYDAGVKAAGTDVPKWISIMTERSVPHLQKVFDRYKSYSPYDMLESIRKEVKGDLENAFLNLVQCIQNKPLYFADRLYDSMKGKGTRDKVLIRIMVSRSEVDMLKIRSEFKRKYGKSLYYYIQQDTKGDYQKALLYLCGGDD

Sequence of Annexin A2 CTD (AnxA2) (Homo sapiens) (P07355 34-339): as the sequence (P07355 34-339 K115A/K119A/R205A/K206A) above, with A82K, A86K, A172R, A173K counted along it

“TTTTTTTTTTTTTTTTTTTG [T19G PS, labelled]” was tested, and the Kd ([1]; full PS DNA) was 8.2 µM.

For “CTGCTAGCCTCTGGATTTGA [PTEN PS, labelled]”, the Kd ([1]; full PS DNA, no 2' modification) was 5 µM and the binding signal (fold weaker than wild type) [2] was 7.

“GCCAGGCTGGTTATG [5-10 MALAT PS, labelled]” showed a Kd ([1]; full PS, 5 nt 2'-MOE 5' wing + 10 nt DNA, 5-methyl-C) of 9.3 µM.

Work on “GCCAGGCTGGTTATGACTCA [5-10-5 MALAT PS, labelled]” yielded a Kd ([1]; full PS, 5-10-5 2'-MOE gapmer, 5-methyl-C) of 6.3 µM.
